PMC4439613, “TRIP13 is a protein-remodeling AAA+ ATPase that catalyzes MAD2 conformation switching” (eLife, 2015)
Substitutions are numbered along the chain they refer to. Names may count otherwise.

T1: PCH-2 (Caenorhabditis elegans, UniProt Q09535)
T1 construct: full-length (424 residues), N-terminal His6 tag removed with TEV protease, E. coli Rosetta 2 (DE3) pLysS
T1 sequence (Q09535 1-424): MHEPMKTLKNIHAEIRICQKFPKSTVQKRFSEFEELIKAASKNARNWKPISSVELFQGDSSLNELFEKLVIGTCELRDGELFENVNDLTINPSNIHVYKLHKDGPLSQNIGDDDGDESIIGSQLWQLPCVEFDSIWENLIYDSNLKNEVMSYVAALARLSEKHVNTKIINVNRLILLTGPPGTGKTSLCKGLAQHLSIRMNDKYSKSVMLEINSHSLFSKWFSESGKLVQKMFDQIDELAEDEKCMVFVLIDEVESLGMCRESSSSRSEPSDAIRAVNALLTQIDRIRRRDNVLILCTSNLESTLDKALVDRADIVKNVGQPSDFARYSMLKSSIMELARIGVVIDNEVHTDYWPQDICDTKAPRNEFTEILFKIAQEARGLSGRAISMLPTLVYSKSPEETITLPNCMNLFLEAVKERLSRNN

T2: His6-tagged M. musculus p31(comet) (M. musculus, UniProt Q9DCX1 1-276)
T2 construct: p31(comet), M. musculus, full length; The same construct as m12 with the TEV-cleavable His6 tag left on for the Ni2+ pull-down; also called His6-tagged p31(comet); source: E. coli Rosetta 2 (DE3) pLysS, purified; not shown: His6, N-terminal, kept
T2 sequence (looked up): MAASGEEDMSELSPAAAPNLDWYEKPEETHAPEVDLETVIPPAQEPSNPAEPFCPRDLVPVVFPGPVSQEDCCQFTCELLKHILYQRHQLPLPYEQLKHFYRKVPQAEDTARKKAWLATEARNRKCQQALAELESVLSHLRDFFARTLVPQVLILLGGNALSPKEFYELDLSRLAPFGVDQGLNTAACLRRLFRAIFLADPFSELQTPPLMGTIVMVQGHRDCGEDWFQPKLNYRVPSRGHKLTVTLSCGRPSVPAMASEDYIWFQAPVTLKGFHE

T3: M. musculus p31(comet) (wild type, tag cleaved) (M. musculus, UniProt Q9DCX1 1-276)
T3 construct: p31(comet), M. musculus, full length; also called wild-type p31(comet); source: E. coli Rosetta 2 (DE3) pLysS, purified (Ni-NTA, Hitrap Q ion exchange, Superdex 200 SEC); not shown: His6, N-terminal, cleaved
T3 sequence (looked up): T2 sequence (looked up)

B1: Caenorhabditis elegans PCH-2 (enzyme, C. elegans, UniProt Q09535 1-424, looked up)
chain: T1 sequence (Q09535 1-424)
notes: PCH-2 (TRIP13 ortholog), C. elegans, full length, 424 residues; Selenomethionine-derivatised protein was used for phasing only; two subunits of the hexamer carry ADP in the crystal; also called C. elegans TRIP13 ortholog; wild-type PCH-2; source: E. coli Rosetta 2 (DE3) pLysS, purified (Ni-NTA, Hitrap Q ion exchange, Superdex 200 SEC); not shown: His6, N-terminal, cleaved
B2: Mus musculus TRIP13 (enzyme, M. musculus, UniProt Q3UA06 1-432, looked up)
chain: MDEAVGDLKQALPCVAESPAVHVEVLQRSGSTAKKEDIKSSVYRLLNRHNIVFGDYVWTEFDDPFLSRNVQSVSIVDTELKAKDPQPIDLSACTIALHIFQLNEEGPSSENLDEETENIIAASHWVLPAAEFHGLWDSLVYDVEVKSHLLDYVMTTVLFSDKNVDSNLITWNRVVLLHGPPGTGKTSLCKALAQKLTIRLSSRYRYGQLIEINSHSLFSKWFSESGKLVTKMFQKIQDLIDDKEALVFVLIDEVESLTAARNACRAGAEPSDAIRVVNAVLTQIDQIKRHSNVVILTTSNITEKIDVAFVDRADIKQYIGPPSAAAIFKIYLSCLEELMKCQIIYPRQQLLTLRELEMIGFIENNVSKLSLLLSEISRKSEGLSGRVLRKLPFLAHALYIQAPSVTIEGFLQALSLAVDKQFEEKKKLSAYV
notes: TRIP13, M. musculus, full length; Mixture of oligomeric states from monomer to hexamer by SEC-MALS; also called wild-type TRIP13; source: E. coli Rosetta 2 (DE3) pLysS, purified (Ni-NTA, Hitrap Q ion exchange, Superdex 200 SEC); not shown: His6, N-terminal, cleaved
B3: C. elegans PCH-2^W221A (enzyme, UniProt Q09535 1-424, looked up)
chain: T1 sequence (Q09535 1-424) with W221A
notes: PCH-2, C. elegans, full length, pore loop mutation W221A; also called pore loop mutant W221A; source: E. coli Rosetta 2 (DE3) pLysS, purified (Ni-NTA, Hitrap Q ion exchange, Superdex 200 SEC); not shown: His6, N-terminal, cleaved
B4: C. elegans PCH-2^F222A (enzyme, UniProt Q09535 1-424, looked up)
chain: T1 sequence (Q09535 1-424) with F222A
notes: PCH-2, C. elegans, full length, pore loop mutation F222A; also called pore loop mutant F222A; source: E. coli Rosetta 2 (DE3) pLysS, purified (Ni-NTA, Hitrap Q ion exchange, Superdex 200 SEC); not shown: His6, N-terminal, cleaved
B5: C. elegans PCH-2 'pore loop AG' mutant (enzyme, UniProt Q09535 1-424, looked up)
chain: T1 sequence (Q09535 1-424) with F218A, S219G, K220A, W221A, F222G, S223A, E224A, S225A, K227A
notes: also called PCH-2^AG; source: E. coli Rosetta 2 (DE3) pLysS, purified (Ni-NTA, Hitrap Q ion exchange, Superdex 200 SEC); not shown: His6, N-terminal, cleaved
B6: TRIP13 (Mus musculus; W221A) (protein)
chain: B2 chain with W221A
notes: full-length, N-terminal His6 tag removed with TEV protease, E. coli Rosetta 2 (DE3) pLysS
B7: M. musculus MAD2 (wild type) (natural protein, UniProt Q9Z1B5 1-205, looked up)
chain: MAQQLAREQGITLRGSAEIVAEFFSFGINSILYQRGIYPSETFTRVQKYGLTLLTTTDPELIKYLNNVVEQLKEWLYKCSVQKLVVVISNIESGEVLERWQFDIECDKTAKEEGVRREKSQKAIQDEIRSVIRQITATVTFLPLLEVSCSFDLLIYTDKDLVVPEKWEESGPQFITNCEEVRLRSFTTTIHKVNSMVAYKTPVND
notes: MAD2, M. musculus, full length; Predominantly dimeric by SEC-MALS; also called WT MAD2; wild-type MAD2 dimer; source: E. coli Rosetta 2 (DE3) pLysS, purified (Ni-NTA, Hitrap Q ion exchange, Superdex 200 SEC); not shown: His6, N-terminal, cleaved
B8: M. musculus C-MAD2^R133A (closed conformer of the monomeric MAD2 R133A variant) (natural protein, UniProt Q9Z1B5 1-205, looked up)
chain: B7 chain with R133A
notes: MAD2, M. musculus, full length, dimerization-defective mutation R133A; the closed conformer, purified apart from the open one by anion exchange; also called closed MAD2; source: E. coli Rosetta 2 (DE3) pLysS, purified; closed conformer peak separated by anion exchange; not shown: His6, N-terminal, cleaved
B9: M. musculus p31(comet):C-MAD2^R133A complex (complex)
chain 1: T2 sequence (looked up)
chain 2: B7 chain with R133A
notes: p31(comet), M. musculus, full length; MAD2, M. musculus, full length, R133A, closed conformer; Heterodimer of m12 and m9; also called p31(comet):MAD2; source: formed from separately purified proteins (E. coli Rosetta 2 (DE3) pLysS); not shown: His6, N-terminal, cleaved; copies: 1 + 1
B10: M. musculus TRIP13^E253Q (enzyme, UniProt Q3UA06 1-432, looked up)
chain: B2 chain with E253Q
notes: TRIP13, M. musculus, full length, Walker B mutation E253Q; also called Walker B mutant; ATP hydrolysis-defective TRIP13; source: E. coli Rosetta 2 (DE3) pLysS, purified (Ni-NTA, Hitrap Q ion exchange, Superdex 200 SEC); not shown: His6, N-terminal, cleaved

What was measured:
[1] = molecular target: C. elegans MAD-2 (MDF-2) (C. elegans); assay: SEC-MALS; single purified proteins on Superdex 200 10/300 GL; PCH-2 and TRIP13 with and without added nucleotides
PCH-2 = molecular target: T1, PCH-2; assay: X-ray crystal structure, […] Å; type: binding; conditions: ATPase active site of chains B and E; ADP co-purified, no nucleotide added
[2] = substrate: Nc1ncnc2c1ncn2[C@@H]1O[C@H](COP(=O)(O)OP(=O)(O)OP(=O)(O)O)[C@@H](O)[C@H]1O; assay: enzyme-coupled ATPase assay (pyruvate kinase / lactate dehydrogenase, NADH); type: biochemical, Caenorhabditis elegans; conditions: basal, pH 8.5, 27 °C, 10 mM MgCl2, 200 mM NaCl, kcat per hexamer
[3] = molecular target: the molecule itself; assay: SEC-MALS; single purified proteins on Superdex 200 10/300 GL; PCH-2 and TRIP13 with and without added nucleotides
[4] = substrate: Nc1ncnc2c1ncn2[C@@H]1O[C@H](COP(=O)(O)OP(=O)(O)OP(=O)(O)O)[C@@H](O)[C@H]1O; assay: enzyme-coupled ATPase assay (pyruvate kinase / lactate dehydrogenase, NADH); type: biochemical, Mus musculus; conditions: basal, pH 8.5, 27 °C, 10 mM MgCl2, 200 mM NaCl, kcat per hexamer
[5] = molecular target: the molecule itself; assay: SEC; PCH-2 pore loop mutants compared with wild type on a size-exclusion column
[6] = substrate: Nc1ncnc2c1ncn2[C@@H]1O[C@H](COP(=O)(O)OP(=O)(O)OP(=O)(O)O)[C@@H](O)[C@H]1O; assay: enzyme-coupled ATPase assay (pyruvate kinase / lactate dehydrogenase, NADH); type: biochemical, Caenorhabditis elegans; conditions: basal, pH 8.5, 27 °C, 10 mM MgCl2, 200 mM NaCl, kcat per hexamer; remark: listed apart in the source
From the text: enzyme-coupled ATPase assay (pyruvate kinase / lactate dehydrogenase, NADH) on PCH-2 | the kcat of PCH-2^W221A around threefold higher than that of the wild-type enzyme

[7] = molecular target: T2, His6-tagged M. musculus p31(comet); assay: pull-down; Ni2+ pull-down: 300 pmol His6-tagged p31(comet) with 450 pmol untagged MAD2 in 50 μl (20 mM Tris-HCl pH 7.5 or 8.5, 200 mM NaCl, 20 mM imidazole, 0.1% NP-40), 20°C, Ni-NTA magnetic beads, Coomassie; conditions: both partners purified
[8] = molecular target: T3, M. musculus p31(comet) (wild type, tag …); assay: SEC; as a8 but mixtures of two of the three proteins (one left out); conditions: both partners purified
M. musculus TRIP13^E253Q [9] = molecular target: B10; assay: SEC; equimolar (10 nanomoles each) TRIP13^E253Q, p31(comet) and C-MAD2^R133A in 300 μl, 20 mM Tris-HCl pH 7.5, 300 mM NaCl, 2 mM ATP, on ice 30 min; Superdex 200 Increase 10/300 GL with 0.1 mM ATP; Coomassie gels of fractions; conditions: both partners purified
M. musculus TRIP13^E253Q [10] = molecular target: B10; assay: SEC-MALS; TRIP13^E253Q with p31(comet) and C-MAD2^R133A, protocol as for the size exclusion analysis; conditions: both partners purified

C. elegans MAD-2 (MDF-2) (natural protein)
stoichiometry N [1]: 2

Nc1ncnc2c1ncn2[C@@H]1O[C@H](COP(=O)(O)OP(=O)(O)O)[C@@H](O)[C@H]1O [ADP]
X-ray crystal structure, 2.3 Å (PCH-2): two subunits in the hexamer (chains B and E) are bound to ADP

B1
Km [2]: 9.5 ± 1.3 µM | kcat [2]: 56.0 +/- 1.5 ATP min^-1 | stoichiometry N [3]: 6

B2
Km [4]: 13.9 ± 0.6 µM | kcat [4]: 8.7 +/- 0.1 ATP min^-1 | stoichiometry N [3]: ≤ 6

B3
stoichiometry N [5]: 6 | Km [6]: 28.3 ± 1.9 µM | kcat [6]: 168.7 +/- 2.3 ATP min^-1

B4
Km [2]: 19.3 ± 0.8 µM | kcat [2]: 11.7 +/- 0.1 ATP min^-1 | stoichiometry N [5]: 6

B5
Km [2]: 20.2 ± 1.6 µM | kcat [2]: 85.4 +/- 1.2 ATP min^-1 | stoichiometry N [5]: 6

B6
Km [4]: 24.4 ± 1.3 µM | kcat [4]: 18.7 +/- 0.2 ATP min^-1

B7
stoichiometry N [3]: 2 | binding result [7]: binds

B8
binding result [8]: binds

B9
stoichiometry N (M. musculus TRIP13^E253Q [9]): ~6 TRIP13^E253Q : p31(comet):MAD2 (molar ratio) | stoichiometry N (M. musculus TRIP13^E253Q [10]): ~1 copy per TRIP13 hexamer

B10
stoichiometry N [3]: 6
